Reference: patent US9828589B2, “Acyltransferases and uses thereof in fatty acid production” (priority 2009, dated 2017)
Entries after “also recorded” stand apart in the source; their conditions may differ.

Key:
[1] = tested on: [14C]-18:1-Lysophosphatidlycholine (-LPC) and acyl-CoA; assay: Determination of substrate specificity for LPLAT, lysophosphatidylcholine as acyl-acceptor (LPCAT assay); format: biochemical, Saccharomyces cerevisea; conditions: comparing FIG. 7 (10 mg/ml BSA) and FIG. 9 (0 mg/ml BSA)
Method: (§1) The specific activity of the enzymes LPLAT_18374 (Pi) and LPCAT_02075 (Pi) using the substrates indicated at the x-axis is gives as the amount (in nmol) of substrate/product consumed/produced in one minute per mg total protein and was determined as described in example 6. The specific activities measured for microsomal extracts of yeast harboring an empty vector (pYES2 ev) is shown as control.
as §1, with “AtLPCAT1-At1g12640, AtLPCAT2-At1g63050, BnLPCAT1” for “LPLAT_18374 (Pi)”, “BnLPCAT2” for “LPCAT_02075 (Pi)”

[2] = tested on: yeast mutant lacking LPAAT activity (knockout of the gene YDL052c); assay: LPAAT activity assay using yeast extracts (complementation, formation of phosphatidic acid); conditions: complements knockout strain; TLC, FIG. 1
Method: Microsomal isolations of these transformants and the wildtype yeast strain BY4742 (lane marked “+”) where incubated with ^14C-labeled oleic acid and lysophosphatidic acid (LPA). Thin layer chromatography was performed to separate lipid classes.
The next day, expression of the acyltransferase polypeptides can be induced by transferring the cells to fresh media containing 2% galactose, for example by inoculating 100 ml of fresh culture to an optical density (measure at 600 nm) of OD600=0.1. Cells are harvested after 24 h incubation at 28° C. by centrifugation at 3000×g for 5 min and resuspended in 1 ml resuspention buffer (25 mM Tris/HCL pH 7.6) and disrupted using acid washed zirconium bead (200 μm average diameter) in a mill (Resch, Germany) by three minutes agitation at 300 rpm. The supernatant is transferred to a fresh tube and centrifuged at 3000×g for 5 min. The obtained supernatant is the crude extract. Protein content is measured according to Bradford (Bradford, M. M. (1976), Anal. Biochem. Bd. 72, pp. 248-254) with bovine serum albumin as standard. Assay mixtures contain 50 μg of protein, 10 μl of 10 mM [^14C]-glycerole-3-phosphate (2000 dpm/nmol), 10 μl of 1 mM 18:1-CoA in assay buffer (25 mM Tris/HCL pH 7.6, 0.5 mg/ml BSA) to give a total volume of 100 μl. Samples are incubated for 10 min at 30° C. The assays are terminated by extraction of the lipids into chloroform according to Blight and Dyer (Bligh, E. G. and Dyer, W. J. (1959), Can. J. Biochem. Physiol. 37, pp. 911-917). Lipids are separated on thin layer chromatography (TLC) silica 60 plates (Merck) using chloroform/methanol/acetic acid/water (90:15:10:3), and autoradiographic pictures are taken using an instant imager (Packard).

[3] = tested on: [14C]-18:1-LPA and acyl-CoA; assay: Determination of substrate specificity for LPAAT (yeast microsomal fraction); format: biochemical, Saccharomyces cerevisea; conditions: comparing FIG. 5 (10 mg/ml BSA) and FIG. 6 (0 mg/ml BSA)
Method: as §1, with “enzyme LPAAT_13842” for “enzymes LPLAT_18374 (Pi) and LPCAT_02075”, “5.” for “6.”, “(pYES2.1” for “(pYES2”
as §1, with “BnLPAAT2” for “LPLAT_18374 (Pi)”, “AtLPAAT2-At3g57650” for “LPCAT_02075 (Pi)”, “5.” for “6.”

Molecule | selectivity towards the length and the desaturation state of the substrate fatty acid [1] | LPAAT activity (formation of phosphatidic acid, PA) [2] | selectivity towards the length and the desaturation state of the substrate fatty acid [3]
LPLAT_18374 (Pi): acyltransferase from Phythophtora infestance, 558 amino acids, SEQ-ID 8, encoded by SEQ-ID 7 (protein, Phythophtora infestance) MSTTALLQASTSPPPSREPEYAALEQLEPPLSHAIDMGVKVSPSESAAIAGGVYVTASSSCGASTIKHNPFTYTTPVDTYEKAKMTILCLLGVPFIRFVLLLCVGILLVIVSHLALIGYKPLDAHSGARPPLPRWRRIVGSPVPYLLRSLMLIVGYYWVPVKYPPNFNRHAMPRVIVSNHLTFFDGLYIFTLLSPSIAMKTDVANLPLISRIVQMIQPILIDRGTPEGRRRAMNDITSHVADPSKPPLLVFPEGTTSNQTVLCKFKVGSFVSGVPCQPVVLRYPYKHFDLSWPPGVSGLYLALRVLCQVYNRLEVEILPAYYPSERERKDPQLYAINVREVMAKALGVPTTNHAFEDVAMLMRVGDYATKHVVPLTDVGEVISLTALKRGDVDRLVGYFRRHDLDKDGHLSMQELRALFPNDDPVIVDQLFDLVDLDDSGLIDFRELCLALRALNPQNINEGDDALAKFAFRLYDLDNNGVIDASELEQLLRFQRNFYGVSEASVAAALRQAQAENTTGITYNRFEQLVLQNPEVLWYVRDKLEVLRGSMRESSLEIP | not as selective as AtLPAAT1 or AtLPCAT2 or BnLPCAT1 or BnLPCAT2 | having LPAAT activity; also recorded: have LPAAT activity | –
LPAAT_13842 (Pi): acyltransferase from Phythophtora infestance, 424 amino acids, SEQ-ID 12, encoded by SEQ-ID 11 (protein, Phythophtora infestance) MSFATPAQVLQDVRFEERFAEIESRLPATLALAKEGSLAKRNQTKRKLYHDSELIRIELEERLNELGIESQWVTAPEMKEANEKLDAVRKQLKLDVLPASSSPLEKIYMVVRMLTMVLVLVGWLSCVTVLIPLKWLNPVLKKMGVKKNYLPMDIVSWGTAFMVCVTACTDMKAEGVENLLNLKDSVVCMFSHSSNLDGFIVNGSSPIAFKFAAKKSIFLVPFLGWSSRWGFDFVAIDRSHRKSALKSLKELAVSVNEHGNSVCISPEGTRSKDGLLQEFKKGPFYLREDTKKNVVPSIVFGAYELWPPGRLFSIPGHTLVRYLPEYKSDPNLNRNQNRLALRRIYLKAFTEDVPDYIGTRVSTNFILKNMFYHYLAWAITFKVTSWALTVISLVLYWLNITYGTFMLFSLVMMVAGEALMFFTC | – | having LPAAT activity; also recorded: have LPAAT activity | not as selective as AtLPAAT2 and BnLPAAT2
